Results from paper doi:10.1101/266643 (bioRxiv, 2018).

B1: wildtype nerve growth factor (wtNGF), monobiotinylated, with AviTag (ligand, mouse, UniProt P01139 122-241, looked up)
chain: SSTHPVFHMGEFSVCDSVSVWVGDKTTATDIKGKEVTVLAEVNINNSVFRQYFFETKCRASNPVESGCRGIDSKHWNSYCTTTHTFVKALTTDEKQAAWRFIRIDTACVCVLSRKATRRG
modifications: biotin on the AviTag (BirA co-expressed); conjugated to streptavidin-QD655 for the assays on cells
B2: NGF^R100W, mature form of the HSAN V mutant nerve growth factor, monobiotinylated, with AviTag (ligand)
chain: SSTHPVFHMGEFSVCDSVSVWVGDKTTATDIKGKEVTVLAEVNINNSVFRQYFFETKCRASNPVESGCRGIDSKHWNSYCTTTHTFVKALTTDEKQAAWWFIRIDTACVCVLSRKATRRGGGGLNDIFEAQKIEWHE
modifications: biotin on the AviTag (BirA co-expressed); conjugated to streptavidin-QD655 for the assays on cells

Biological target: TrkA receptor (tropomyosin receptor kinase A) on NIH3T3-TrkA cells (UniProt P04629 33-796)
Sequence (P04629 33-796): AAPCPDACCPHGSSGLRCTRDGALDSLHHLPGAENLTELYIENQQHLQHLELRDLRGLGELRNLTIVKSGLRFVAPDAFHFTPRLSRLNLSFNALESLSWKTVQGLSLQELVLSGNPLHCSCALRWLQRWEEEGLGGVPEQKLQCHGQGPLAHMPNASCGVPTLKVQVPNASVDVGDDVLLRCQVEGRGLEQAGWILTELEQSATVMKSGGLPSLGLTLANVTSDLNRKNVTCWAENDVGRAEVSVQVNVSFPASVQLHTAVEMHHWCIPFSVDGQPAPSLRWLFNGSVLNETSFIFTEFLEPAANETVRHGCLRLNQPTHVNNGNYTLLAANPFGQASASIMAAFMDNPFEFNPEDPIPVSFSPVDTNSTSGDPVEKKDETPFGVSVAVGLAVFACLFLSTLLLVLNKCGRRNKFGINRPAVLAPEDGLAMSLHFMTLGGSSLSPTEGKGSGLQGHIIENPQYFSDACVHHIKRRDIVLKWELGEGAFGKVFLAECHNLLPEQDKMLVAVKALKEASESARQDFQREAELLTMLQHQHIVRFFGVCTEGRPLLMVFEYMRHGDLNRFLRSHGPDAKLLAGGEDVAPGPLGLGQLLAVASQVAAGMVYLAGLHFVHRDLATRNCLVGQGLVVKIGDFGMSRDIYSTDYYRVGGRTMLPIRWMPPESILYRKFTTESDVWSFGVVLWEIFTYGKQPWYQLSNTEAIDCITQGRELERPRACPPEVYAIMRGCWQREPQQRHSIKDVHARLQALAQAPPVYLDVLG

| Binder | Kd [nM] |
| --- | --- |
| B1 | 2.27 |
| B2 | 2.79 |
